Test results taken from paper PMC7056315 (Science Advances, 2020).

Tests used:
KcsA-Shaker channels [1] = assay: TEVC block of KcsA-Shaker channels expressed in Xenopus oocytes; assay type: cell-based
KcsA-Shaker–Y82V = assay: TEVC equilibrium inhibition of pore mutant KcsA-Shaker-Y82V in oocytes; assay type: cell-based; settings: KcsA-Shaker–Y82V vs KcsA-Shaker, 0 mV
KcsA-Shaker channels [2] = settings: TEA block of KcsA-Shaker; cited from earlier work
[3] = target: KcsA-Shaker–Y82V (Drosophila | not stated); assay: […]
[4] = target: human Kv1.3 channel (human) (UniProt P22001); assay: […]
[5] = target: KcsA-Shaker channel (KcsA pore carried in the Shaker channel) (Drosophila | not stated); assay: […]
[6] = target: KcsA-Shaker channel (KcsA pore carried in the Shaker channel) (Drosophila | not stated); assay: two-electrode voltage clamp
[7] = target: human Kv1.3 channel (human) (UniProt P22001); assay: two-electrode voltage clamp
[8] = target: KcsA-Shaker channel (KcsA pore carried in the Shaker channel) (Drosophila | not stated); assay: two-electrode voltage clamp; remark: listed apart in the source

Chain of human Kv1.3 channel (human) (P22001 whole entry): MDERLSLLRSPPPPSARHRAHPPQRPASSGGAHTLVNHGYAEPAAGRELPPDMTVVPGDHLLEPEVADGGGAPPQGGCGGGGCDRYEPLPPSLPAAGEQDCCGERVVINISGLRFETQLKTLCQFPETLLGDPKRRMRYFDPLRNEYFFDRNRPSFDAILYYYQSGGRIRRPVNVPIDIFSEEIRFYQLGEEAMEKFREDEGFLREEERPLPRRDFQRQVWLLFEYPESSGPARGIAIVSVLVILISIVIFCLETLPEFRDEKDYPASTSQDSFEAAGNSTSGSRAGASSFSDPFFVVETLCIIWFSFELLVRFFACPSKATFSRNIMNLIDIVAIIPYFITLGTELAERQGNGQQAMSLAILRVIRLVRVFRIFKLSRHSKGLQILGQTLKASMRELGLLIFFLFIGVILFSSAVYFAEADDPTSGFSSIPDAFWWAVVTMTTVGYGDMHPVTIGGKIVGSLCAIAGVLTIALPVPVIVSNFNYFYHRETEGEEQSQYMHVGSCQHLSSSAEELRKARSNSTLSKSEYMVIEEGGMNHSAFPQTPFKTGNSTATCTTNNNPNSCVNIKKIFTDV

With CC[N+](CC)(CC)CC [TEA, tetraethylammonium] the “block of KcsA-Shaker” value (KcsA-Shaker channels [1]; 100 mM TEA) was “complete”, the “τoff (dissociation / unblock)” value (KcsA-Shaker channels [1]; washout of 100 mM TEA) was ~ 1.3 s and the “decrease in equilibrium affinity by mutation of pore residue Tyr^82 to Val” value (KcsA-Shaker–Y82V) was ~ 200 fold. The Ki (KcsA-Shaker channels [2]) was ~800000 nM.

For HmK peptide, the fold decrease of equilibrium affinity against KcsA-Shaker [3] was 550 fold, the Ki [4] was 3.1 nM and the Ki [5] was 0.94 nM. It also gave a kon [5] of 1.3e+06 M⁻¹ s⁻¹, a τoff [5] of 714 s and a τon (5 nM HmK) [5] of 126 s. The kon [6] was 1.2e+06 M⁻¹ s⁻¹ and the τon (30 nM HmK, after TEA wash off) [6] was 27 s.

Peptide HmK-Lys^22Asn showed a Ki [5] of 225 nM, a koff [5] of 0.1 s⁻¹ and a kon [5] of 380000 M⁻¹ s⁻¹.

With Peptide HmK-Tyr^23Ala the Ki [5] was 162 nM, the koff [5] was 0.15 s⁻¹ and the kon [5] was 930000 M⁻¹ s⁻¹.

In the case of ShK-K22N peptide, the fold decrease of inhibition against ShK peptide [4] is reported as 24 fold.

Work on ShK-Lys22Asn peptide yielded a Ki [7] of 1.2 nM.

“T-HmK (membrane-tethered HmK, 46-residue linker) (peptide)” gave a Ki [7] of 3 nM, a Ki [6] of 1.09 nM and an apparent first-order on rate (effective T-HmK 1 nM) [6] of 0.014 s⁻¹. For the same compound, the apparent first-order on rate (effective T-HmK 17 nM) [6] was 0.119 s⁻¹, the koff [6] was 0.0073 s⁻¹ and the kon [6] was 6.6e+06 M⁻¹ s⁻¹. For the same compound, the percent of current inhibited (0.01 ng of T-HmK cRNA) [6] was 2%, the percent of current inhibited (0.25 ng of T-HmK cRNA) [6] was 76% and the percent of current inhibited (0.35 ng of T-HmK cRNA) [6] was 87%. The percent of current inhibited (0.5 ng of T-HmK cRNA) [6] was > 94%, the percent of current inhibited (1 ng of T-HmK cRNA) [6] was 98% and the τon (0.25 ng of T-HmK cRNA) [6] was 33 s. The Ki [8] was 1.1 nM.

With “T-HmK variant Asn^26 to alanine (peptide)” the fold decrease of affinity against T-HmK [6] was 10 fold.

“T-HmK variant Pro^8 to alanine (peptide)” showed a fold decrease of affinity against T-HmK [6] of 10 fold.

For T-HmK-Lys22Asn, the koff [4] was 0.93 s⁻¹.

Compound T-HmK–Arg^24Gln (peptide) has a fold change of apparent Ki against T-HmK [7] of 3 fold, a percent of current blocked (0.5 ng of cRNA) [7] of 68% and a Ki [6] of 0.91 nM. The koff [6] was 0.0063 s⁻¹ and the kon [6] was 6.9e+06 M⁻¹ s⁻¹.

T-HmK–Lys^22Asn (peptide) showed a fold change of apparent Ki against T-HmK [7] of 230 fold, a percent of current blocked (0.5 ng of cRNA) [7] of 2% and a Ki [6] of 35 nM. The koff [6] was 0.11 s⁻¹, the kon [6] was 3.1e+06 M⁻¹ s⁻¹ and the percent of current blocked (0.5 ng of cRNA) [6] was < 38%.

T-HmK–Tyr^23Ala (peptide) showed a Ki [6] of 28 nM, a koff [6] of 0.17 s⁻¹ and a kon [6] of 6.1e+06 M⁻¹ s⁻¹. The percent of current blocked (0.5 ng of cRNA) [6] was < 38%.

For T-ShK (membrane-tethered ShK) (peptide), the Ki [7] was 0.098 nM.

In the case of T-ShK–Arg^24Gln (peptide), the Ki [7] is reported as 0.075 nM and the percent of current blocked (0.1 ng of cRNA) [7] is reported as 93%.

T-ShK–Lys^22Asn (peptide) showed a Ki [7] of 0.42 nM and a percent of current blocked (0.1 ng of cRNA) [7] of 70%.
